Results on 3 compounds are retold here after patent publication US6340461B1 (priority 1996, dated 2002).

On the set-up of assay [1]: species or system New Zealand white rabbits. Conditions: rabbit, in vivo.
On the set-up of assay [2]: species or system baboons. The following applies: in vivo, sc.
Assay [3] addresses T cell receptor Vβ11 on murine tumor-draining lymph node T cells (mouse). Briefly: cell-based or functional assay.
The target of assay [4] is T cell receptor Vβ12 on murine tumor-draining lymph node T cells (mouse). Briefly: cell-based or functional assay.
Assay [5] addresses T cell receptor Vβ13 on murine tumor-draining lymph node T cells (mouse). Kind of assay: cell-based or functional assay.
Assay [6] addresses T cell receptor Vβ14 on murine tumor-draining lymph node T cells (mouse). Kind of assay: cell-based or functional assay.
Assay [7] deals with T cell receptor Vβ2 on murine tumor-draining lymph node T cells (mouse). Kind of assay: cell-based or functional assay.
The target of assay [8] is T cell receptor Vβ3 on murine T cells (mouse). Briefly: cell-based or functional assay.
For assay [9], the target named is T cell receptor Vβ5.1, 5.2 on murine tumor-draining lymph node T cells (mouse). Briefly: cell-based or functional assay.
Assay [10] deals with T cell receptor Vβ6 on murine tumor-draining lymph node T cells (mouse). Briefly: cell-based or functional assay.
Assay [11] concerns the target T cell receptor Vβ7 on murine tumor-draining lymph node T cells (mouse). Kind of assay: cell-based or functional assay.
Assay [12] has as its target T cell receptor Vβ8.1 on murine T cells (mouse). Briefly: cell-based or functional assay.
In assay [13] the target is T cell receptor Vβ8.2 on murine T cells (mouse). Briefly: cell-based or functional assay.
For assay [14], the target named is T cell receptor Vβ8.3 on murine T cells (mouse). Kind of assay: cell-based or functional assay.
For assay [15], the target named is T cell receptor Vβ9 on murine tumor-draining lymph node T cells (mouse). Kind of assay: cell-based or functional assay.
Assay [16] has as its target T cell receptor Vβ17 on murine tumor-draining lymph node T cells (mouse). Kind of assay: cell-based or functional assay.

Turning to `CC(C)Cc1ccc(C(C)C(=O)O)cc1` (stereo not drawn) [Ibuprofen], the “effect on SEB induced fever and anorexia” value in assay [1] was “reduced febrile responses exceeding 105° F. and shortened the period of anorexia and inanition”. The “effect on SEB induced anorexia and malaise” value in [2] is “abrogate some of the anorexia and malaise”.
In the case of “staphylococcal enterotoxin B (SEB) (from UniProt P01552 28-266)”, the % of Total T Cells (Vβ use of tumor-draining LN T cells stimulated with SEB) is 2.9% in assay [3]; 0% in [4]; less than 1% in assay [5]; 0% in assay [6]; 0% in assay [7]; 32.5% in assay [8]. The % of Total T Cells (Vβ use of tumor-draining LN T cells stimulated with SEB) in assay [9] is 1.2%; in [10], 0%; in [11], less than 1%; in assay [12] it was 4.8%; in assay [13], 15%; in assay [14] it was 19.8%. The compound also showed a % of Total T Cells (Vβ use of tumor-draining LN T cells stimulated with SEB) in assay [15] of 0%.
In the case of “Staphylococcus aureus enterotoxin A (SEA) (from UniProt P0A0L2 25-257)”, the % of Total T Cells (Vβ use of tumor-draining LN T cells stimulated with SEA) is 34.3% in assay [3]; 7.4% in assay [4]; 1.5% in assay [5]; less than 1% in assay [6]; 0% in assay [16]; less than 1% in assay [7]. Moreover, the % of Total T Cells (Vβ use of tumor-draining LN T cells stimulated with SEA) in assay [8] was 29.9%; in assay [9], less than 1%; in [10] it was less than 1%; in assay [11], less than 1%; in assay [13], 1.5%; in [15], 0%.
